Experimental data as given in patent publication US20090098142A1.

Assays:
[1] = biological target: cynomolgus monkey IL-13 (NHP IL-13) (cynomolgus monkey); assay: cell-based or functional assay
[2] = biological target: native human IL-13 (human) (UniProt P35225); assay: cell-based or functional assay
native human IL-13 (human), sequence (P35225 other isoform, or with tags, fused parts or gaps): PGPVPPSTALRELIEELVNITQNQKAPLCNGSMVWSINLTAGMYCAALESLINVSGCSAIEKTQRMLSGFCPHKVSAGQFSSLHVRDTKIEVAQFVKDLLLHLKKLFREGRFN

cynomolgus monkey IL-13 (NHP IL-13) (cynomolgus monkey), sequence (Q5I6E4 other isoform, or with tags, fused parts or gaps): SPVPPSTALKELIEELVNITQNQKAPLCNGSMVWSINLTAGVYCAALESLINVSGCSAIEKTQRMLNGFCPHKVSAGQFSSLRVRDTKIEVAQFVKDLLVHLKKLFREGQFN

B1: antibody with the murine heavy chain of MJ2-7 and a humanized light chain (antibody, part only; not given: humanized light chain, V domains shown, part only)
VH: EVQLQQSGAELVKPGASVKLSCTGSGFNIKDTYIHWVKQRPEQGLEWIGRIDPANDNIKYDPKFQGKATITADTSSNTAYLQLNSLTSEDTAVYYCARSEENWYDFFDYWGQGTTLTVSS
Question: With B1 as the binder, how does the CD23 expression assay, non-human primate IL-13 at 1 ng/ml, IC50 [1] read?
Answer: 0.308 nM

Question: What about the STAT6 phosphorylation assay, native human IL-13 at 1 ng/ml, IC50 [2] of the same binder?
Answer: 0.554 nM
